Our source for the interaction score values is article PMC10397247.

In one assay the target is T1, O10-bN.
T1 chain: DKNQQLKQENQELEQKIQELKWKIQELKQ
The assay can be described thus: two-hybrid library CCNG1.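 Further: natural log of median RNA to DNA barcode read ratio; higher means stronger binding.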 The conditions noted are these: mean of both orientations.

For the next assay, the target named is T2, O11-bN.
T2 chain: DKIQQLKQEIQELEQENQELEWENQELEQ
The assay can be described thus: two-hybrid library CCNG1.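 Further: natural log of median RNA to DNA barcode read ratio; higher means stronger binding.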

Another assay addresses T3, O12-bN.
T3 chain: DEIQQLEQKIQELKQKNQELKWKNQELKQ
The assay can be described thus: two-hybrid library CCNG1.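 Further: natural log of median RNA to DNA barcode read ratio; higher means stronger binding.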

Another assay addresses T4, O13-bN.
T4 chain: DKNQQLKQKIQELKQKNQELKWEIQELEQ
Briefly: two-hybrid library CCNG1.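 Further: natural log of median RNA to DNA barcode read ratio; higher means stronger binding.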

A further assay deals with T5, O14-bN.
T5 chain: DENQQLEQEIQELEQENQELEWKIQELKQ
Briefly: two-hybrid library CCNG1.

The next assay addresses T6, O15-bN.
T6 chain: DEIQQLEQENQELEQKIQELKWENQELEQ
The assay can be described thus: two-hybrid library CCNG1.

In a further assay the target is T7, O16-bN.
T7 chain: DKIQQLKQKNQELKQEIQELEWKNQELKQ
The assay can be described thus: two-hybrid library CCNG1.

The target in the next assay is T8, O2-bN.
T8 chain: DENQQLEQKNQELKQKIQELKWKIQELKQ
The assay can be described thus: two-hybrid library CCNG1.

The target in the next assay is T9, O3-bN.
T9 chain: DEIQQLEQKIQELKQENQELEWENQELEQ
The assay can be described thus: two-hybrid library CCNG1.

Another assay concerns the target T10, O4-bN.
T10 chain: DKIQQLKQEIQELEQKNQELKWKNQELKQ
Briefly: two-hybrid library CCNG1.

The target of a further assay is T11, O5-bN.
T11 chain: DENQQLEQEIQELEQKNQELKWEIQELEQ
The assay can be described thus: two-hybrid library CCNG1.

The target of the next assay is T12, O6-bN.
T12 chain: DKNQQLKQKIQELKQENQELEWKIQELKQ
Briefly: two-hybrid library CCNG1.

In another assay the target is T13, O7-bN.
T13 chain: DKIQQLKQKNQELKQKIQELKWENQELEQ
The assay can be described thus: two-hybrid library CCNG1.

Another assay addresses T14, O8-bN.
T14 chain: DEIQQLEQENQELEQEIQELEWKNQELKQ
The assay can be described thus: two-hybrid library CCNG1.

In a further assay the target is T15, O9-bN.
T15 chain: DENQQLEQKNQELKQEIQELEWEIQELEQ
Briefly: two-hybrid library CCNG1. As to conditions: mean of both orientations.

Another assay deals with T16, Core_NIIN-es_KEKK.
T16 chain: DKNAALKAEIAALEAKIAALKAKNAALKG
The assay can be described thus: two-hybrid library CCmax. The conditions noted are these: mean of both orientations.

A further assay concerns the target T17, 4H1072-bH.
T17 chain: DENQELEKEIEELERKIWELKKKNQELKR
Briefly: two-hybrid library CCNG1.

The target of a further assay is T18, 4H1193-bH.
T18 chain: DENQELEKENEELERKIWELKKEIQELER
Briefly: two-hybrid library CCNG1.

The target of a further assay is T19, 4H1387-bH.
T19 chain: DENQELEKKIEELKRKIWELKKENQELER
The assay can be described thus: two-hybrid library CCNG1.

The next assay has as its target T20, 4H1406-bH.
T20 chain: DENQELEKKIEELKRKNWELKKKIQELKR
Briefly: two-hybrid library CCNG1.

For the next assay, the target named is T21, 4H1899-bN.
T21 chain: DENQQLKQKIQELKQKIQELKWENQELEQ
The assay can be described thus: two-hybrid library CCNG1.

For a further assay, the target named is T22, 4H2568-bH.
T22 chain: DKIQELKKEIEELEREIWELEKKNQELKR
The assay can be described thus: two-hybrid library CCNG1.

For a further assay, the target named is T23, 4H2619-bH.
T23 chain: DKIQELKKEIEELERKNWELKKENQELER
The assay can be described thus: two-hybrid library CCNG1.

The target of the next assay is T24, 4H2745-bH.
T24 chain: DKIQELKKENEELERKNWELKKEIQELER
Briefly: two-hybrid library CCNG1.

In another assay the target is T25, 4H3297-bN.
T25 chain: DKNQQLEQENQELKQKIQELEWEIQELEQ
Briefly: two-hybrid library CCNG1.

The next assay has as its target T26, 4H344-bH.
T26 chain: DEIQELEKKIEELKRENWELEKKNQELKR
Briefly: two-hybrid library CCNG1.

In another assay the target is T27, 4H3592-bH.
T27 chain: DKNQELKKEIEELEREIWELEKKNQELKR
The assay can be described thus: two-hybrid library CCNG1.

Another assay addresses T28, 4H3601-bH.
T28 chain: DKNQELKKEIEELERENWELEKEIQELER
The assay can be described thus: two-hybrid library CCNG1.

A further assay concerns the target T29, 4H363-bH.
T29 chain: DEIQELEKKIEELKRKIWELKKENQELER
Briefly: two-hybrid library CCNG1.

The next assay concerns the target T30, 4H3907-bH.
T30 chain: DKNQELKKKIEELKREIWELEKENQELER
The assay can be described thus: two-hybrid library CCNG1.

In another assay the target is T31, 4H3961-bH.
T31 chain: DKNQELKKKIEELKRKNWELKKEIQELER
The assay can be described thus: two-hybrid library CCNG1.

Another assay deals with T32, 4H4038-bH.
T32 chain: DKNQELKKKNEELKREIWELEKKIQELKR
The assay can be described thus: two-hybrid library CCNG1.

The target of the next assay is T33, 4H470-bH.
T33 chain: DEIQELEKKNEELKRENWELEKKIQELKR
The assay can be described thus: two-hybrid library CCNG1.

The next assay deals with T34, 4H1338-bH.
T34 chain: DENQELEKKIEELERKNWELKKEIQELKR
Briefly: two-hybrid library CCNG1.

The target of another assay is T35, 4H1348-bH.
T35 chain: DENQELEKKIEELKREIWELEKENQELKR
The assay can be described thus: two-hybrid library CCNG1.

The target of the next assay is T36, 4H1373-bH.
T36 chain: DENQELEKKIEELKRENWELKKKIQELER
The assay can be described thus: two-hybrid library CCNG1.

A further assay deals with T37, 4H1449-bH.
T37 chain: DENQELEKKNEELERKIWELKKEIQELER
Briefly: two-hybrid library CCNG1.

For the next assay, the target named is T38, 4H1544-bH.
T38 chain: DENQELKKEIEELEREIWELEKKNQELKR
The assay can be described thus: two-hybrid library CCNG1.

For another assay, the target named is T39, 4H1710-bH.
T39 chain: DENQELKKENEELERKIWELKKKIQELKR
The assay can be described thus: two-hybrid library CCNG1.

The target of the next assay is T40, 4H1899-bH.
T40 chain: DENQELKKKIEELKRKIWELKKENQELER
The assay can be described thus: two-hybrid library CCNG1.

A further assay deals with T41, 4H1985-bH.
T41 chain: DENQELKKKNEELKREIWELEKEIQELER
Briefly: two-hybrid library CCNG1.

The next assay deals with T42, 4H3613-bH.
T42 chain: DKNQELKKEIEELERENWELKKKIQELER
Briefly: two-hybrid library CCNG1.

The target in the next assay is T43, 4H3628-bH.
T43 chain: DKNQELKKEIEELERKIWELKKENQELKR
The assay can be described thus: two-hybrid library CCNG1.

The target of a further assay is T44, 4H3817-bH.
T44 chain: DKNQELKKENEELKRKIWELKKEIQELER
The assay can be described thus: two-hybrid library CCNG1.

The target of a further assay is T45, 4H3858-bH.
T45 chain: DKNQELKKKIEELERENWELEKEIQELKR
The assay can be described thus: two-hybrid library CCNG1.

The next assay has as its target T46, 4H3974-bH.
T46 chain: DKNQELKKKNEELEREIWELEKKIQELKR
The assay can be described thus: two-hybrid library CCNG1.

The target in another assay is T47, 4H570-bH.
T47 chain: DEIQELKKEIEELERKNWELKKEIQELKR
The assay can be described thus: two-hybrid library CCNG1.

The next assay deals with T48, 4H850-bH.
T48 chain: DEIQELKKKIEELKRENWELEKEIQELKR
The assay can be described thus: two-hybrid library CCNG1.

B1: O10-bN (peptide)
chain: DKNQQLKQENQELEQKIQELKWKIQELKQ
Consider B1, for which the interaction score was -0.625 with O10-bN; 0.648 with O11-bN; -1.87 with O12-bN; -0.398 with O13-bN; -1.59 in the assay with O14-bN; 0.569 with O15-bN. Further, the interaction score with O16-bN was -0.104; in the assay with O2-bN, 0.523; with O3-bN, 0.129; with O4-bN it was -0.783; with O5-bN it was 0.186; with O6-bN, -0.552. Further, the interaction score was 0.28 with O7-bN, -0.514 in the assay with O8-bN and 1.38 in the assay with O9-bN.

B2: Core_NIIN-es_EKEE (peptide)
chain: DENAALEAKIAALKAEIAALEAENAALEG
B2 displayed an interaction score with Core_NIIN-es_KEKK of 1.84.

B3: 4H1072-bH (peptide)
chain: DENQELEKEIEELERKIWELKKKNQELKR
Regarding B3, the interaction score with 4H1072-bH is 0.311; with 4H1193-bH, 0.426; with 4H1387-bH, 1.17; in the assay with 4H1406-bH, 0.174; with 4H1899-bN, 1.84; with 4H2568-bH, -0.817. The interaction score is 1.65 in the assay with 4H2619-bH; -0.184 with 4H2745-bH; 0.827 with 4H3297-bN; 1.31 with 4H344-bH; 2.09 with 4H3592-bH; 0.621 in the assay with 4H3601-bH. Also, the interaction score was 0.487 with 4H363-bH; 1.52 with 4H3907-bH; 0.132 with 4H3961-bH; 0.634 in the assay with 4H4038-bH; -1.58 in the assay with 4H470-bH.

B4: 4H1338-bH (peptide)
chain: DENQELEKKIEELERKNWELKKEIQELKR
Take B4: the interaction score is 0.937 in the assay with 4H1338-bH; 1.22 with 4H1348-bH; 0.156 with 4H1373-bH; -0.182 with 4H1449-bH; 0.712 in the assay with 4H1544-bH; -0.178 in the assay with 4H1710-bH. Moreover, the interaction score with 4H1899-bH was -0.277; with 4H1985-bH, 0.0593; in the assay with 4H3613-bH it was -0.0861; in the assay with 4H3628-bH, 0.15; in the assay with 4H3817-bH it was -0.423; with 4H3858-bH, 1.35. The interaction score with 4H3974-bH was 0.694; with 4H570-bH, -0.436; in the assay with 4H850-bH, 1.44.
